Drawing on publication PMC6881174, this text covers stoichiometry N for one substance.

In the test the target is TRIM5α from African green monkey, L81F (African green monkey). The test can be described thus: cryo-EM structure.

Values joined by “and” are separate entries in the source; they are usually repeats but may differ in a detail not shown here. Equal values may be shown once.

Regarding “TRIM5α from African green monkey, L81F (natural protein)”, the stoichiometry N (in general, a count of units in the complex or per binding partner) is 3 and 2.
